In US20250129143A1:

What was measured:
[1] = target: polyubiquitinated substrates (HCT-116 cell extract); assay: immunoprecipitation from HCT-116 cell extract; gel region of 62 kDa or more; quantitative mass spectrometry with stable isotope-labeled peptides [panel A]
K6 (human) [2] = assay: as above
K33 (human) [3] = assay: as above
K27 (human) [4] = assay: as above
K29 (human) [5] = assay: as above
K11 (human) [6] = assay: as above
K63 (human) [7] = assay: as above
M1 (human) [8] = assay: as above
K48 (human) [9] = assay: as above
K6 (human) [10] = assay: immunoprecipitation from HCT-116 cell extract; quantitative mass spectrometry; pie chart [panel B]
K33 (human) [11] = assay: as above
K27 (human) [12] = assay: as above
K29 (human) [13] = assay: as above
K11 (human) [14] = assay: as above
K63 (human) [15] = assay: as above
M1 (human) [16] = assay: as above
K48 (human) [17] = assay: as above
[18] = target: polyubiquitinated substrates (HCT-116 cell extract); assay: immunoprecipitation (Halo tag-fused wild-type monobody) from HCT-116 cell extract; gel region of 62 kDa or more; quantitative mass spectrometry with stable isotope-labeled peptides [panel A]

Substance: Control IgG (antibody)
- EST peptide (…) in the immunoprecipitate [1]: 0.19 fmol
- total ubiquitin in the immunoprecipitate (EST + K63 peptides) [1]: 0.19 fmol
- K6 chain-derived peptide in the immunoprecipitate (K6 (human) [2]): 0 fmol
- K33 chain-derived peptide in the immunoprecipitate (K33 (human) [3]): 0 fmol
- K27 chain-derived peptide in the immunoprecipitate (K27 (human) [4]): 0.03 fmol
- K29 chain-derived peptide in the immunoprecipitate (K29 (human) [5]): 0 fmol
- K11 chain-derived peptide in the immunoprecipitate (K11 (human) [6]): 0.02 fmol
- K63 chain-derived peptide in the immunoprecipitate (K63 (human) [7]): 0 fmol
- M1 chain-derived peptide in the immunoprecipitate (M1 (human) [8]): 0 fmol
- K48 chain-derived peptide in the immunoprecipitate (K48 (human) [9]): 0.04 fmol

Substance: anti-polyubiquitin monoclonal antibody FK2 (0918-2, Nippon Bio-Test)
- percentage of this chain among the 8 ubiquitin chain-derived peptides in the immunoprecipitate (control subtracted) (K6 (human) [10]): 5%
- percentage of this chain among the 8 ubiquitin chain-derived peptides in the immunoprecipitate (control subtracted) (K33 (human) [11]): 0%
- percentage of this chain among the 8 ubiquitin chain-derived peptides in the immunoprecipitate (control subtracted) (K27 (human) [12]): 0%
- percentage of this chain among the 8 ubiquitin chain-derived peptides in the immunoprecipitate (control subtracted) (K29 (human) [13]): 8%
- percentage of this chain among the 8 ubiquitin chain-derived peptides in the immunoprecipitate (control subtracted) (K11 (human) [14]): 7%
- percentage of this chain among the 8 ubiquitin chain-derived peptides in the immunoprecipitate (control subtracted) (K63 (human) [15]): 20%
- percentage of this chain among the 8 ubiquitin chain-derived peptides in the immunoprecipitate (control subtracted) (M1 (human) [16]): 0%
- percentage of this chain among the 8 ubiquitin chain-derived peptides in the immunoprecipitate (control subtracted) (K48 (human) [17]): 60%
- EST peptide (…) in the immunoprecipitate [1]: 106 fmol
- total ubiquitin in the immunoprecipitate (EST + K63 peptides) [1]: 116 fmol
- K6 chain-derived peptide in the immunoprecipitate (K6 (human) [2]): 2.15 fmol
- K33 chain-derived peptide in the immunoprecipitate (K33 (human) [3]): 0.2 fmol
- K27 chain-derived peptide in the immunoprecipitate (K27 (human) [4]): 0.11 fmol
- K29 chain-derived peptide in the immunoprecipitate (K29 (human) [5]): 3.69 fmol
- K11 chain-derived peptide in the immunoprecipitate (K11 (human) [6]): 3.62 fmol
- K63 chain-derived peptide in the immunoprecipitate (K63 (human) [7]): 9.59 fmol
- M1 chain-derived peptide in the immunoprecipitate (M1 (human) [8]): 0.02 fmol
- K48 chain-derived peptide in the immunoprecipitate (K48 (human) [9]): 29.1 fmol

Substance: anti-ubiquitin antibody P4D1 (sc-8017, Santa Cruz)
- percentage of this chain among the 8 ubiquitin chain-derived peptides in the immunoprecipitate (control subtracted) (K6 (human) [10]): 3%
- percentage of this chain among the 8 ubiquitin chain-derived peptides in the immunoprecipitate (control subtracted) (K33 (human) [11]): 0%
- percentage of this chain among the 8 ubiquitin chain-derived peptides in the immunoprecipitate (control subtracted) (K27 (human) [12]): 0%
- percentage of this chain among the 8 ubiquitin chain-derived peptides in the immunoprecipitate (control subtracted) (K29 (human) [13]): 43%
- percentage of this chain among the 8 ubiquitin chain-derived peptides in the immunoprecipitate (control subtracted) (K11 (human) [14]): 3%
- percentage of this chain among the 8 ubiquitin chain-derived peptides in the immunoprecipitate (control subtracted) (K63 (human) [15]): 5%
- percentage of this chain among the 8 ubiquitin chain-derived peptides in the immunoprecipitate (control subtracted) (M1 (human) [16]): 0%
- percentage of this chain among the 8 ubiquitin chain-derived peptides in the immunoprecipitate (control subtracted) (K48 (human) [17]): 46%
- EST peptide (…) in the immunoprecipitate [1]: 72.1 fmol
- total ubiquitin in the immunoprecipitate (EST + K63 peptides) [1]: 74.5 fmol
- K6 chain-derived peptide in the immunoprecipitate (K6 (human) [2]): 1.32 fmol
- K33 chain-derived peptide in the immunoprecipitate (K33 (human) [3]): 0.11 fmol
- K27 chain-derived peptide in the immunoprecipitate (K27 (human) [4]): 0.08 fmol
- K29 chain-derived peptide in the immunoprecipitate (K29 (human) [5]): 20.1 fmol
- K11 chain-derived peptide in the immunoprecipitate (K11 (human) [6]): 1.65 fmol
- K63 chain-derived peptide in the immunoprecipitate (K63 (human) [7]): 2.47 fmol
- M1 chain-derived peptide in the immunoprecipitate (M1 (human) [8]): 0 fmol
- K48 chain-derived peptide in the immunoprecipitate (K48 (human) [9]): 21.8 fmol

Substance: wild-type Monobody (FN3) (designed binder)
- EST peptide (…) in the immunoprecipitate [18]: 12.3 fmol
- total ubiquitin in the immunoprecipitate (EST + K63 peptides) [18]: 13 fmol
